In patent publication US20200138986A1 (FREDAX, published 2020):
Values belong to the binder of their own block, whether it stands above or below them.

Experiments:
[1] = molecular target: T1, free prostate-specific antigen (fPSA) (human, UniProt P07288 25-261); assay: Time-resolved Eu fluorescence immunoassay: coat goat anti-human polyclonal, 5A10-Fab 15 ng/well, Eu-PSA titrated from about 0.15 to 20 ng/well [upper and lower panels]
T1 construct: In the IRMA, fPSA was spiked into female plasma and captured by mAb H117; also called hk3; human kallikrein 3

[2] = molecular target: T2, human glandular kallikrein 2 (hK2) (human, UniProt P20151 25-261); assay: cell-based or functional assay
[3] = molecular target: T2, human glandular kallikrein 2 (hK2); assay: method not stated (told in the Materials section of Example 10)

T2 sequence (P20151 25-261 limits assumed): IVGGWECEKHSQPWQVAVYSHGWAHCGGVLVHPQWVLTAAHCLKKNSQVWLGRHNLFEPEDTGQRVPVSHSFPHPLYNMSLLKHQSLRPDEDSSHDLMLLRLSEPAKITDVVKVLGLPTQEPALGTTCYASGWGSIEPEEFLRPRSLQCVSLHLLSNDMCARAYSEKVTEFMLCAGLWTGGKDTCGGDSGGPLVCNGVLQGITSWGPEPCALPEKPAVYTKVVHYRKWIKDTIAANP
T1 sequence (P07288 25-261 limits assumed): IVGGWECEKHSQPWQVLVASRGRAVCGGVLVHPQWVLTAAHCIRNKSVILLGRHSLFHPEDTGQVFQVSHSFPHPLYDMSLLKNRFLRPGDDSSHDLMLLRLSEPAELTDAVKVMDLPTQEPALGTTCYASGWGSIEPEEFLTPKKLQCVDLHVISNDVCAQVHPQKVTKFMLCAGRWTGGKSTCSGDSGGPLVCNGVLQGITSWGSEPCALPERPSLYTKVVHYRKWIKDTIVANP

binding result [1]: binds
B1: 5A10-Fab (Fab, V domains shown)
VH: EVQLVESGPGILQPSQTLSLTCSFSGFSLSTTGMGVSWIRQPSGKGLEWLAHLYWDEDKRYNPSLKSRLTISEDSSRNQVFLKITSVGPADSATYYCARKGYYGYFDYWGQGTALTVSS
VL: DIVMTQSQKFMSTSVGDRVSVTCKASQNVNTDVAWYQQKPGQSPKALIFSTSYRSSGVPDRFTGSGSGTDFTLTITNVQSEDLAEYFCQQYSNYPLTFGAGTKVDLN
notes: also called exemplary 5A10-Fab; Fab fragment of anti-PSA antibody 5A10

tumor uptake in hK2-expressing xenografts (LnCAP) against hK2-negative xenografts (DU145) at 48 hpi [2]: > 3 fold
B2: 111In-CHX-A''-DTPA-11B6 (antibody, V domains shown)
VH: DVQLQESGPGLVKPSQSLSLTCTVTGNSITSDYAWNWIRQFPGNRLEWMGYISYSGSTTYSPSLKSRFSITRDTSKNQFFLQLNSVTPEDTATYFCATGYYYGSGFWGQGTLVTVSS
VL: DIVLTQSPASLAVSLGQRATISCRASESVEYFGTSLMHWYRQKPGQPPKLLIYAASNVESGVPARFSGSGSGTDFSLNIQPVEEDDFSMYFCQQTRKVPYTFGGGTKLEIK
modifications: CHX-A''-DTPA chelator conjugated to the antibody and labelled with 111In; sites not stated

Kd [3]: ~1.2 nM
B3: mAb 11B6 (mouse monoclonal anti-hK2 antibody) (antibody, V domains shown)
VH: B2 VH
VL: B2 VL
notes: Whole mouse monoclonal antibody obtained from the University of Turku; also called m11B6; mouse mAb 11B6
